Key:
Assay in all cases: Kinase Profiling Assay
Format in all cases: biochemical
Settings in all cases: for % activity: 100 μM
PKG1α(h) = target: T1, PKG1α(h) (Homo sapiens, UniProt Q13976)
T1 sequence (Q13976 1-671): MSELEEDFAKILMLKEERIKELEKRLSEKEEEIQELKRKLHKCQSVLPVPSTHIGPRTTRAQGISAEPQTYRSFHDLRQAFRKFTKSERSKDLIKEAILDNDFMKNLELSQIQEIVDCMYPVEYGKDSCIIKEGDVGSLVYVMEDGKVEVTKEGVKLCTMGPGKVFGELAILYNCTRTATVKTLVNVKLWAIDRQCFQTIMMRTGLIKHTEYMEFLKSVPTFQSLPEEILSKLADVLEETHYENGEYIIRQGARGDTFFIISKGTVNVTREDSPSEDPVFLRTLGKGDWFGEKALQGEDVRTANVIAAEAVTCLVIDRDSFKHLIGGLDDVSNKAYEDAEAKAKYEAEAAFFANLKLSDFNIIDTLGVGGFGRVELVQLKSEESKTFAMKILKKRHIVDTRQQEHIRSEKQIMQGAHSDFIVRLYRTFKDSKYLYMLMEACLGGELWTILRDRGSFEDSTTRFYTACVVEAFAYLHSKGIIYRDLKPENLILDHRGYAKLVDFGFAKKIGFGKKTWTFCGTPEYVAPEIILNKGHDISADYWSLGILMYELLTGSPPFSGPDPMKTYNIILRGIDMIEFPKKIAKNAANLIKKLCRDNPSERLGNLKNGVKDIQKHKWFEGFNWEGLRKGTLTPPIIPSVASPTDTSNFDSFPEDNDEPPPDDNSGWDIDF

BRK(h) = BRK(h) (Homo sapiens, UniProt Q13882)
Chain of BRK(h) (Q13882 whole entry): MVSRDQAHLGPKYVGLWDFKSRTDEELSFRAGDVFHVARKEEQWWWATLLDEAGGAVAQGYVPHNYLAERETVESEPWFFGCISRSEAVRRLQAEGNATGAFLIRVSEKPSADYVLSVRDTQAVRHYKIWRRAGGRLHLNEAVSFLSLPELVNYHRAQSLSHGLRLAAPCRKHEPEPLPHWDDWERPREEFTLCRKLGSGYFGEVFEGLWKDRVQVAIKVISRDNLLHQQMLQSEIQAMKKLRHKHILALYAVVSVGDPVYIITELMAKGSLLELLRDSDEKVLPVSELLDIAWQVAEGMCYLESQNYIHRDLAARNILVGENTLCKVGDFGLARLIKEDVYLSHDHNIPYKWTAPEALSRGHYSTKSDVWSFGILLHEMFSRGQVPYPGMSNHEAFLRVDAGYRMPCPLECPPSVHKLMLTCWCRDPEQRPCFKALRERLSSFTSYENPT

Met(D1246H)(h) = Met(D1246H)(h) (Homo sapiens, UniProt P08581, D1228H)
PKCμ(h) = target: T2, PKCμ(h) (Homo sapiens, UniProt Q15139)
T2 sequence (Q15139 1-912): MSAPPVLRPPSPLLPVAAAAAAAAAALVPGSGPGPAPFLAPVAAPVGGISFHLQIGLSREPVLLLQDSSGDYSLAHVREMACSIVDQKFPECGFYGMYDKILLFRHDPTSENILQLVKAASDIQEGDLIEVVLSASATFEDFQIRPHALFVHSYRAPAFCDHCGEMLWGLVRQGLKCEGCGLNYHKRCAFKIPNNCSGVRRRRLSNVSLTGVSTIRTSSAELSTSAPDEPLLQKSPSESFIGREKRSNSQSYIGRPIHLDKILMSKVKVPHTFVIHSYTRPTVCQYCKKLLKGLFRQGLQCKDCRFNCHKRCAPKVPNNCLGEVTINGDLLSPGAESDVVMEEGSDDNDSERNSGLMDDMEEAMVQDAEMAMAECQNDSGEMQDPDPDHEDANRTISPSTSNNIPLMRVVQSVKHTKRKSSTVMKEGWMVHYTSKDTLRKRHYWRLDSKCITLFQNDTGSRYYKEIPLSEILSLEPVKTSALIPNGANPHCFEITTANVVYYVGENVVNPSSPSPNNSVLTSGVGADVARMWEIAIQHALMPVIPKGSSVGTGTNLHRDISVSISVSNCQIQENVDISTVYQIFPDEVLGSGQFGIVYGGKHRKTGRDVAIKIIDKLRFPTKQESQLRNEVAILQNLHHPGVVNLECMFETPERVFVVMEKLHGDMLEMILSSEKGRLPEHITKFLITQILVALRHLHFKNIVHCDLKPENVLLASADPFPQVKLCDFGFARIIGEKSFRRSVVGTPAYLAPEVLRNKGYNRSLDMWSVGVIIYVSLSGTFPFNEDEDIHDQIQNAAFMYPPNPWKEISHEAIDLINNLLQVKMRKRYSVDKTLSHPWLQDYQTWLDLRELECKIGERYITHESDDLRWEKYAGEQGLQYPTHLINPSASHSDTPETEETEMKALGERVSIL

ASK1(h) = target: T3, ASK1(h) (Homo sapiens, UniProt Q99683)
T3 sequence (Q99683 1-1374): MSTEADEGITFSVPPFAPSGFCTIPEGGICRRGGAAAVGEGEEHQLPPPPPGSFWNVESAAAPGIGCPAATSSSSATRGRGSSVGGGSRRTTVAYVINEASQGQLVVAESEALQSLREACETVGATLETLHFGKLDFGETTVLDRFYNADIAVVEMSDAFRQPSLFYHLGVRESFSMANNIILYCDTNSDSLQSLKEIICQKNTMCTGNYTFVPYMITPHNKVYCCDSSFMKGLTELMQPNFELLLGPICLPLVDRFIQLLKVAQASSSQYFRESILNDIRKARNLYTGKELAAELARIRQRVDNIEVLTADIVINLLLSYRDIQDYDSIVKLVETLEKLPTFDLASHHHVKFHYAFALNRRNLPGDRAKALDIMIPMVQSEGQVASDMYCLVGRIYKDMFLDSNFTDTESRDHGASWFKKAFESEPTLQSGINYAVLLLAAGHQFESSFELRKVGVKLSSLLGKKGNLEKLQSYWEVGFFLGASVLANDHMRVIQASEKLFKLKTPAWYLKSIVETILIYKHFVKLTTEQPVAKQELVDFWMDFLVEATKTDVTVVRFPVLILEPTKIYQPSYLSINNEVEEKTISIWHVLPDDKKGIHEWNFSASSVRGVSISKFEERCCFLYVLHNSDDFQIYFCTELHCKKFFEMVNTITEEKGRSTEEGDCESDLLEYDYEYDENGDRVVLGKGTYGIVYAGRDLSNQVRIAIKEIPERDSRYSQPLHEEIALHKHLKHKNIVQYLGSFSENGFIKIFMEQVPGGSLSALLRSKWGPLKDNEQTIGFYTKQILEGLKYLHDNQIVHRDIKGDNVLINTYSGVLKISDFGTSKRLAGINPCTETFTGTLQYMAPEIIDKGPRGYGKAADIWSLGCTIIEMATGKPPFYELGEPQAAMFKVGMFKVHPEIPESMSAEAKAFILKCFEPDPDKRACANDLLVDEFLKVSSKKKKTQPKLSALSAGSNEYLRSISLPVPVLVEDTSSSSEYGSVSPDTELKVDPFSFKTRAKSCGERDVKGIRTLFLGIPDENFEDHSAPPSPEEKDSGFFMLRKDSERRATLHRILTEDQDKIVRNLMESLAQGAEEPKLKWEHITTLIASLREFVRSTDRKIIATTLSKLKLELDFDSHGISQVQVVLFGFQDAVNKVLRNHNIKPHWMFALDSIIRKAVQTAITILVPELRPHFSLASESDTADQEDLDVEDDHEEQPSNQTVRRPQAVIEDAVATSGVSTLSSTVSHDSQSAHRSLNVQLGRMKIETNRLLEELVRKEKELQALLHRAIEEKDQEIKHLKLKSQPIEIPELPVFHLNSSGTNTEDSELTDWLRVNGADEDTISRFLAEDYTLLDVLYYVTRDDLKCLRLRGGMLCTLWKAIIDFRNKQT

H-YARAAARQARAKALARQLGVAA-OH [MMI-0100]
activity at 100 µM (PKG1α(h)): 82%
activity at 100 µM (BRK(h)): 70%
activity at 100 µM (Met(D1246H)(h)): 99%
activity at 100 µM (PKCμ(h)): 79%
activity at 100 µM (ASK1(h)): 100%

HRRIKAWLKKIKALARQLGVAA (Mammalian) [MMI-0500]
% activity (PKG1α(h)): 25%
% activity (BRK(h)): 41%
% activity (Met(D1246H)(h)): 150%
% activity (PKCμ(h)): 10%
% activity (ASK1(h)): -4%

YARAAARQARAKALNRQLGVA (Mammalian) [MMI-0200]
% activity (PKG1α(h)): 70%
% activity (BRK(h)): 127%
% activity (Met(D1246H)(h)): 139%
% activity (PKCμ(h)): 73%
% activity (ASK1(h)): 101%

Reference: patent US10087225B2, “Formulation of MK2 inhibitor peptides” (MOERAE MATRIX, INC., priority 2015, dated 2018)
